Assay results: patent publication US8148141 (HIPEP LABORATORIES, dated 2012)
Ends that are not written are not given here. carboxyfluorescein = carboxyfluorescein (fluorescent group); ethyldansyl = not defined here

Key:
calmodulin [1] = target: T1, calmodulin (Homo sapiens (Human), UniProt P0DP23 2-149); test: fluorescence of immobilized labeled peptide on glass chip, ex 340 nm / em 480 nm, plate reader, 1.0 uM calmodulin, 25 C, 5 min
calmodulin [2] = target: T1, calmodulin; test: fluorescence of immobilized labeled peptide on glass chip, ex 490 nm / em 520 nm, calmodulin solution, 25 C, 5 min

Binder	increase of the fluorescence intensity (fold) (calmodulin [1]) [times]	increase of the fluorescence intensity (fold) (calmodulin [2]) [times]
CE(ethyldansyl)LKKLLKLLKKLLKLK(dabsyl)-NH2 (reading uncertain; also: printed as Cys-Glu(Rf1)-Leu-Lys-Lys-Leu-Leu-Lys-Leu-Leu-Lys-Lys-Leu-Leu-Lys-Leu-Lys(Rf2)-NH2, Chemically synthesized designed peptide; Immobilized on a glass substrate in the assay; also called alpha-helix peptide with ethyldansyl-dabsyl labels, N-terminal Cys anchor) [Cys-Glu(Rf1)-Leu-Lys-Lys-Leu-Leu-Lys-Leu-Leu-Lys-Lys-Leu-Leu-Lys-Leu-Lys(Rf2)-NH2]	~5	–
K(carboxyfluorescein)LKKLLKLLKKLLKLC-NH2 (also called peptide containing carboxyfluorescein) [Lys(Rf3)-Leu-Lys-Lys-Leu-Leu-Lys-Leu-Leu-Lys-Lys-Leu-Leu-Lys-Leu-Cys-NH2]	–	~10
E(ethyldansyl)LKKLLKLLKKLLKLK(dabsyl)C-NH2 (reading uncertain; also: printed as Glu(Rf1)-Leu-Lys-Lys-Leu-Leu-Lys-Leu-Leu-Lys-Lys-Leu-Leu-Lys-Leu-Lys(Rf2)-Cys-NH2, Chemically synthesized designed peptide; Immobilized on a glass substrate in the assay; also called alpha-helix peptide with ethyldansyl-dabsyl labels, C-terminal Cys anchor) [Glu(Rf1)-Leu-Lys-Lys-Leu-Leu-Lys-Leu-Leu-Lys-Lys-Leu-Leu-Lys-Leu-Lys(Rf2)-Cys-NH2]	~5	–
